Results taken from patent US20120135912A1 (PERSEID THERAPEUTICS, published 2012).

Experiments:
[1] = target: T1, human VLA4-Fc (alpha4-Fc/beta1-Fc heterodimer) (human); experiment: ELISA, VLA4-Fc coated, 1 mM MnCl2; from EC50 values; ELISA, VLA4-Fc coated on plate, 1 mM MnCl2 (activated VLA4); fold relative to Q38L-2D-VCAM-1
T1 construct: Soluble heterodimer from CHO cells, Protein A purified; also called VLA-Fc
Experimental: (§1) The relative binding affinities of various 2D-VCAM-1 variants to immobilized VLA4-Fc (α4-β1-Fc) heterodimer, relative to a control protein (e.g., Q38L-2D-VCAM-1 or to human 2D-VCAM-1), were deter using a solid-phase ELISA assay. […] The dilution series was transferred into the ELISA plate which was incubated at room temperature for 2 h and subsequently washed with TBS-T. Bound 2D-VCAM protein was detected by incubation with 0.5 ug/ml of biotinylated anti-human VCAM antibody (R&D Systems, Catalog No. BAF809) in TBS-TMC for 1 h at room temperature followed by a TBS-MT (TBS plus 1 mM MnCl2 and 0.02% TWEEN-20) wash and subsequent incubation with 1:2000 dilution of streptavidin-HRP (BD Biosciences, Catalog No. 554066) in TBS-TMC for 30 min at room temperature. […] Fold-improvement in binding was calculated relative to a control protein (e.g., Q38L-2D-VCAM-1 or human 2D-VCAM-1) assayed on the same plate.

[2] = target: T1, human VLA4-Fc (alpha4-Fc/beta1-Fc …); experiment: ELISA, VLA4-Fc coated, 1 mM MnCl2; from EC50 values; ELISA, VLA4-Fc coated on plate, 1 mM MnCl2 (activated VLA4); fold relative to human 2D-VCAM-1
Experimental: as §1

[3] = target: T1, human VLA4-Fc (alpha4-Fc/beta1-Fc …); experiment: SPR (BIACORE), VLA4-Fc captured by anti-human IgG, 1 mM MnCl2, 1:1 Langmuir; standard BIACORE assay, first preparation (Table 5A); activated VLA4 (Mn2+)
Experimental: All BIACORE analyses were performed on a BIACORE 2000 system or BIACORE 3000 system (GE Healthcare) at room temperature (RT, 25° C.), HBS-P buffer (10 mM Hepes (pH 7.4), 150 mM NaCl, 0.005% surfactant P20) supplemented with 1 mM MnCl₂ (HBS-P-Mn) was used as the flow buffer for all experiments except where indicated.
The kinetic 2D-VCAM-1 assay measures binding kinetics of a dimeric ligand (e.g., VLA-Fc fusion protein or LPAM-1-Fc fusion protein) coated to sensor chips and monomeric analyte (e.g., 2D-VCAM-1 variant polypeptides) in the mobile phase. Goat anti-human IgG antibody (Jackson ImmunoResearch, Catalog No. 105-005-098) was immobilized on CM-5 sensor chips (GE Healthcare, Catalog No. BR-1000-14) according to the manufacturer's protocol. Antibody was diluted to 30 μg/ml in immobilization buffer (10 mM sodium acetate, pH 5.0 (GE Healthcare, Catalog No. BR-1003-51)). […] Un-reacted sites were quenched with 35 μl of 1 M ethanolamine-HCl pH 8.5 (GE Healthcare, Catalog No. BR-1000-50). This procedure typically yielded 15,000 response units (RU) of coupled antibody. VLA4-Fc or LPAM-1-Fc, prepared as described in Examples 3 and 4, respectively, were bound to antibody-coated sensor chips by injection of 20 μl of ligand solution (20 μg/ml protein in HBS-P-Mn buffer at a flow rate of 10 μl/min). Ligand capture levels were typically 200-300 RU. […]

T1 sequence (chain, as listed by the source limits assumed, form in doubt, chain 1 of 2): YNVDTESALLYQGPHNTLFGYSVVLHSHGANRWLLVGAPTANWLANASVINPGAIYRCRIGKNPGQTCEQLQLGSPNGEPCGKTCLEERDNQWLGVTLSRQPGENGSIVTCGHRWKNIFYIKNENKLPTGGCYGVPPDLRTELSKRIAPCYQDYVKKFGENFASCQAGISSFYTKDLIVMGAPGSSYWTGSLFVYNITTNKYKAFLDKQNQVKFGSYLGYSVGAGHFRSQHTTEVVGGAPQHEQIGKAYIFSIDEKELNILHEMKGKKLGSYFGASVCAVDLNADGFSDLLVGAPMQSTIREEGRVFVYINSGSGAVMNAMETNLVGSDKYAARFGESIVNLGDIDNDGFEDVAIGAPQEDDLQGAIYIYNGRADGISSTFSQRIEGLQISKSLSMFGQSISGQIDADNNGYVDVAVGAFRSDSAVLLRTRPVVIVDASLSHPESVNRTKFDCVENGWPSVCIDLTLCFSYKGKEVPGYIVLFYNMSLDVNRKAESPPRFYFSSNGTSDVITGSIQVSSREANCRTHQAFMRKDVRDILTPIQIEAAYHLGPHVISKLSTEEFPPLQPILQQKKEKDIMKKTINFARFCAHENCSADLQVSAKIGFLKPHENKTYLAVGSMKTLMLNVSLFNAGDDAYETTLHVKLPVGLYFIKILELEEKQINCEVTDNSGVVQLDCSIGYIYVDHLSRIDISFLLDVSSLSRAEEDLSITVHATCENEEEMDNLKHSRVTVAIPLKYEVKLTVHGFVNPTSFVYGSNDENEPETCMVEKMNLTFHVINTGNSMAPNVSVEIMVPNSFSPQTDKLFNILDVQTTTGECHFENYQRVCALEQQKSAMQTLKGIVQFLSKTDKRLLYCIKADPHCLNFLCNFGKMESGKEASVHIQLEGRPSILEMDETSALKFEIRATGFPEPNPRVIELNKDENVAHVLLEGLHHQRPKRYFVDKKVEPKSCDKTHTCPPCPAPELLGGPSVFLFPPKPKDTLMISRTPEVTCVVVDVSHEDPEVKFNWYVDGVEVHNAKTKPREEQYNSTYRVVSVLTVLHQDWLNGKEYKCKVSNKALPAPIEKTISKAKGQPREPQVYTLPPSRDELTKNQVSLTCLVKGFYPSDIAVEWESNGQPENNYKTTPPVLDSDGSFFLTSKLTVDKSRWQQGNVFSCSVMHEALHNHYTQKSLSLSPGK
T1 sequence (chain, as listed by the source limits assumed, form in doubt, chain 2 of 2): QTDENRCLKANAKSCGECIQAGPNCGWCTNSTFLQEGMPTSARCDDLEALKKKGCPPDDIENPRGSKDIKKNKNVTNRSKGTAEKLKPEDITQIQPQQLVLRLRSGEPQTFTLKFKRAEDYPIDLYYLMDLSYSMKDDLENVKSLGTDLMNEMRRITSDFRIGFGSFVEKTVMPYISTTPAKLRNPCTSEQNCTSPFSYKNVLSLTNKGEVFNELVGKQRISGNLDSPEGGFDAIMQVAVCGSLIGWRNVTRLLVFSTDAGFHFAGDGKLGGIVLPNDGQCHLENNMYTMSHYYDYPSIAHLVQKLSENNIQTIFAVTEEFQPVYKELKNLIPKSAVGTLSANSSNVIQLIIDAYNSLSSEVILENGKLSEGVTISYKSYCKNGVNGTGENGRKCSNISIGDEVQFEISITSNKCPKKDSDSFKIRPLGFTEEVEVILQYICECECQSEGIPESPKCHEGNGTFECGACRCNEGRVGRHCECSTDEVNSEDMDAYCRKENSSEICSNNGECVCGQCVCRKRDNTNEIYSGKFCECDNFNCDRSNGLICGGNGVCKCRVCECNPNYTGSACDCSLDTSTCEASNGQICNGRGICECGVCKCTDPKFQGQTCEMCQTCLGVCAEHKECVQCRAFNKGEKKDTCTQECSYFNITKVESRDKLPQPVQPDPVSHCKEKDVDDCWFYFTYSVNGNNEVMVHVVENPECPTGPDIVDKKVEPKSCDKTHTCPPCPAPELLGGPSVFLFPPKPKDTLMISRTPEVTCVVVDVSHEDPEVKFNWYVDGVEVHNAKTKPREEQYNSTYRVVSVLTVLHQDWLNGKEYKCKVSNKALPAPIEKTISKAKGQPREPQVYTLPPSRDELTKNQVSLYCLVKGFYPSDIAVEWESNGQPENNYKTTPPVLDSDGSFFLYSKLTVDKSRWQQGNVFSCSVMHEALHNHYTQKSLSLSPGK

- fold-improvement in binding relative to Q38L-2D-VCAM-1 [1]: 37 fold
- fold-improvement in binding relative to human 2D-VCAM-1 [2]: 298 fold
- Kd [3]: 0.0497 nM
B1: 2D-VCAM-1 variant Clone 146 (ligand, not shown: small tags and cut ends)
chain: FKIETTPESRYLAQIGDSVSLTCSTTGCESPLFFWRPLLDSPLNGKVTNEGTTSTLTMNPVSFGNEHSYLCTARCESRSLEKGIQVEIYSFPKDPEIHLSGPLEAGKPITVKCSVADVYPFDRLEIDLLKGDHLMKSQEFLEDADRKSLETKSLEVTFTPVIEDIGKVLVCRAKLHIDEMDSVPTVRQAVKELQVYISP
